This is an account of results in patent US20050100540A1, “Platelet-activating factor acetylhydrolase” (priority 1993, published 2005).

This experiment can be described thus: PAF-AH activity of amino acid substitution products expressed in E. coli. The following applies: for PAF-AH activity: point mutants expressed in E. coli. The format is biochemical. The text has this:
By site-directed mutagenesis and PCR, individual codons of the human PAF-AH coding sequence were modified to encode alanine residues and were expressed in E. coli. […] The distances between active site residues is similar for PAF-AH (Ser to Asp, 23 amino acids; Ser to His, 78 amino acids) and other lipases. […] Cysteines are often critical for the functional integrity of proteins because of their capacity to form disulfide bonds. The plasma PAF-AH enzyme contains five cysteines. To determine whether any of the five is critical for enzyme actvity, each cysteine was mutated individually to a serine and the resulting mutants were expressed in E. coli. As shown below in Table 8, a significant but not total loss of PAF-AH activity resulted from the conversion of either Cys229, r Cys291 to serine. Therefore, these cysteines appear to be necessary for full PAF-AH activity. Other point mutations had little or no effect on PAF-AH catalytic activity. In Table 8, “++++” represent wild type PAF-AH activity of about 40-60 U/ml/OD600, “+++” represents about 20-40 U/ml/OD600 activity, “++” represents about 10-20 U/ml/OD600 activity, “+” represents 1-10 U/ml/OD600 activity, and “−” indicates <1 U/ml/OD600 activity.
To test whether this mutation crippled the enzyme, an E. coli expression construct containing the mutation was generated by methods similar to that described in Example 10. […] This amino acid substitution presumably results in a structural modification which causes the observed deficiency of activity and lack of immunoreactivity with the PAF-AH antibodies of the invention.

B1: V279F: PAF-AH with phenylalanine for valine at position 279, mutation of PAF-AH deficient individuals, expressed in E. coli (protein)
chain: MVPPKLHVLFCLCGCLAVVYPFDWQYINPVAHMKSSAWVNKIQVLMAAASFGQTKIPRGNGPYSVGCTDLMFDHTNKGTFLRLYYPSQDNDRLDTLWIPNKEYFWGLSKFLGTHWLMGNILRLLFGSMTTPANWNSPLRPGEKYPLVVFSHGLGAFRTLYSAIGIDLASHGFIVAAVEHRDRSASATYYFKDQSAAEIGDKSWLYLRTLKQEEETHIRNEQVRQRAKECSQALSLILDIDHGKPVKNALDLKFDMEQLKDSIDREKIAVIGHSFGGATFIQTLSEDQRFRCGIALDAWMFPLGDEVYSRIPQPLFFINSEYFQYPANIIKMKKCYSPDKERKMITIRGSVHQNFADFTFATGKIIGHMLKLKGDIDSNVAIDLSNKASLAFLQKHLGLHKDFDQWDCLIEGDDENLIPGTNINTTNQHIMLQNSSGIEKYN
For the molecule B1, the “PAF-AH activity of E. coli expression construct containing the mutation” value (control construct lacking the mutation fully active) is recorded as “no PAF-AH activity”.

B2: C67S: PAF-AH cysteine to serine mutant expressed in E. coli (protein)
chain: MVPPKLHVLFCLCGCLAVVYPFDWQYINPVAHMKSSAWVNKIQVLMAAASFGQTKIPRGNGPYSVGSTDLMFDHTNKGTFLRLYYPSQDNDRLDTLWIPNKEYFWGLSKFLGTHWLMGNILRLLFGSMTTPANWNSPLRPGEKYPLVVFSHGLGAFRTLYSAIGIDLASHGFIVAAVEHRDRSASATYYFKDQSAAEIGDKSWLYLRTLKQEEETHIRNEQVRQRAKECSQALSLILDIDHGKPVKNALDLKFDMEQLKDSIDREKIAVIGHSFGGATVIQTLSEDQRFRCGIALDAWMFPLGDEVYSRIPQPLFFINSEYFQYPANIIKMKKCYSPDKERKMITIRGSVHQNFADFTFATGKIIGHMLKLKGDIDSNVAIDLSNKASLAFLQKHLGLHKDFDQWDCLIEGDDENLIPGTNINTTNQHIMLQNSSGIEKYN
On to B2, for which the PAF-AH activity result was “+++ (“+++” represents about 20-40 U/ml/OD600 activity)”.

B3: C334S: PAF-AH cysteine to serine mutant expressed in E. coli (protein)
chain: MVPPKLHVLFCLCGCLAVVYPFDWQYINPVAHMKSSAWVNKIQVLMAAASFGQTKIPRGNGPYSVGCTDLMFDHTNKGTFLRLYYPSQDNDRLDTLWIPNKEYFWGLSKFLGTHWLMGNILRLLFGSMTTPANWNSPLRPGEKYPLVVFSHGLGAFRTLYSAIGIDLASHGFIVAAVEHRDRSASATYYFKDQSAAEIGDKSWLYLRTLKQEEETHIRNEQVRQRAKECSQALSLILDIDHGKPVKNALDLKFDMEQLKDSIDREKIAVIGHSFGGATVIQTLSEDQRFRCGIALDAWMFPLGDEVYSRIPQPLFFINSEYFQYPANIIKMKKSYSPDKERKMITIRGSVHQNFADFTFATGKIIGHMLKLKGDIDSNVAIDLSNKASLAFLQKHLGLHKDFDQWDCLIEGDDENLIPGTNINTTNQHIMLQNSSGIEKYN
Consider B3, for which the PAF-AH activity entry is “++++ (“++++” represent wild type PAF-AH activity of about 40-60 U/ml/OD600)”.

B4: H351A: PAF-AH amino acid substitution product expressed in E. coli (protein)
chain: MVPPKLHVLFCLCGCLAVVYPFDWQYINPVAHMKSSAWVNKIQVLMAAASFGQTKIPRGNGPYSVGCTDLMFDHTNKGTFLRLYYPSQDNDRLDTLWIPNKEYFWGLSKFLGTHWLMGNILRLLFGSMTTPANWNSPLRPGEKYPLVVFSHGLGAFRTLYSAIGIDLASHGFIVAAVEHRDRSASATYYFKDQSAAEIGDKSWLYLRTLKQEEETHIRNEQVRQRAKECSQALSLILDIDHGKPVKNALDLKFDMEQLKDSIDREKIAVIGHSFGGATVIQTLSEDQRFRCGIALDAWMFPLGDEVYSRIPQPLFFINSEYFQYPANIIKMKKCYSPDKERKMITIRGSVAQNFADFTFATGKIIGHMLKLKGDIDSNVAIDLSNKASLAFLQKHLGLHKDFDQWDCLIEGDDENLIPGTNINTTNQHIMLQNSSGIEKYN
On to B4, for which the PAF-AH activity result is given as “− (“−” indicates <1 U/ml/OD600 activity)”.

B5: C229S: PAF-AH cysteine to serine mutant expressed in E. coli (protein)
chain: MVPPKLHVLFCLCGCLAVVYPFDWQYINPVAHMKSSAWVNKIQVLMAAASFGQTKIPRGNGPYSVGCTDLMFDHTNKGTFLRLYYPSQDNDRLDTLWIPNKEYFWGLSKFLGTHWLMGNILRLLFGSMTTPANWNSPLRPGEKYPLVVFSHGLGAFRTLYSAIGIDLASHGFIVAAVEHRDRSASATYYFKDQSAAEIGDKSWLYLRTLKQEEETHIRNEQVRQRAKESSQALSLILDIDHGKPVKNALDLKFDMEQLKDSIDREKIAVIGHSFGGATVIQTLSEDQRFRCGIALDAWMFPLGDEVYSRIPQPLFFINSEYFQYPANIIKMKKCYSPDKERKMITIRGSVHQNFADFTFATGKIIGHMLKLKGDIDSNVAIDLSNKASLAFLQKHLGLHKDFDQWDCLIEGDDENLIPGTNINTTNQHIMLQNSSGIEKYN
Turning to B5, the PAF-AH activity entry is recorded as “+ (“+” represents 1-10 U/ml/OD600 activity)”.

B6: D304A: PAF-AH amino acid substitution product expressed in E. coli (protein)
chain: MVPPKLHVLFCLCGCLAVVYPFDWQYINPVAHMKSSAWVNKIQVLMAAASFGQTKIPRGNGPYSVGCTDLMFDHTNKGTFLRLYYPSQDNDRLDTLWIPNKEYFWGLSKFLGTHWLMGNILRLLFGSMTTPANWNSPLRPGEKYPLVVFSHGLGAFRTLYSAIGIDLASHGFIVAAVEHRDRSASATYYFKDQSAAEIGDKSWLYLRTLKQEEETHIRNEQVRQRAKECSQALSLILDIDHGKPVKNALDLKFDMEQLKDSIDREKIAVIGHSFGGATVIQTLSEDQRFRCGIALDAWMFPLGAEVYSRIPQPLFFINSEYFQYPANIIKMKKCYSPDKERKMITIRGSVHQNFADFTFATGKIIGHMLKLKGDIDSNVAIDLSNKASLAFLQKHLGLHKDFDQWDCLIEGDDENLIPGTNINTTNQHIMLQNSSGIEKYN
Regarding B6, the PAF-AH activity entry is reported as “++++ (“++++” represent wild type PAF-AH activity of about 40-60 U/ml/OD600)”.

B7: D338A: PAF-AH amino acid substitution product expressed in E. coli (protein)
chain: MVPPKLHVLFCLCGCLAVVYPFDWQYINPVAHMKSSAWVNKIQVLMAAASFGQTKIPRGNGPYSVGCTDLMFDHTNKGTFLRLYYPSQDNDRLDTLWIPNKEYFWGLSKFLGTHWLMGNILRLLFGSMTTPANWNSPLRPGEKYPLVVFSHGLGAFRTLYSAIGIDLASHGFIVAAVEHRDRSASATYYFKDQSAAEIGDKSWLYLRTLKQEEETHIRNEQVRQRAKECSQALSLILDIDHGKPVKNALDLKFDMEQLKDSIDREKIAVIGHSFGGATVIQTLSEDQRFRCGIALDAWMFPLGDEVYSRIPQPLFFINSEYFQYPANIIKMKKCYSPAKERKMITIRGSVHQNFADFTFATGKIIGHMLKLKGDIDSNVAIDLSNKASLAFLQKHLGLHKDFDQWDCLIEGDDENLIPGTNINTTNQHIMLQNSSGIEKYN
Consider B7, for which the PAF-AH activity result is given as “++++ (“++++” represent wild type PAF-AH activity of about 40-60 U/ml/OD600)”.

B8: H395A, H399A: PAF-AH double amino acid substitution product expressed in E. coli (protein)
chain: MVPPKLHVLFCLCGCLAVVYPFDWQYINPVAHMKSSAWVNKIQVLMAAASFGQTKIPRGNGPYSVGCTDLMFDHTNKGTFLRLYYPSQDNDRLDTLWIPNKEYFWGLSKFLGTHWLMGNILRLLFGSMTTPANWNSPLRPGEKYPLVVFSHGLGAFRTLYSAIGIDLASHGFIVAAVEHRDRSASATYYFKDQSAAEIGDKSWLYLRTLKQEEETHIRNEQVRQRAKECSQALSLILDIDHGKPVKNALDLKFDMEQLKDSIDREKIAVIGHSFGGATVIQTLSEDQRFRCGIALDAWMFPLGDEVYSRIPQPLFFINSEYFQYPANIIKMKKCYSPDKERKMITIRGSVHQNFADFTFATGKIIGHMLKLKGDIDSNVAIDLSNKASLAFLQKALGLAKDFDQWDCLIEGDDENLIPGTNINTTNQHIMLQNSSGIEKYN
As for B8, the PAF-AH activity result is recorded as “++++ (“++++” represent wild type PAF-AH activity of about 40-60 U/ml/OD600)”.

B9: C291S: PAF-AH cysteine to serine mutant expressed in E. coli (protein)
chain: MVPPKLHVLFCLCGCLAVVYPFDWQYINPVAHMKSSAWVNKIQVLMAAASFGQTKIPRGNGPYSVGCTDLMFDHTNKGTFLRLYYPSQDNDRLDTLWIPNKEYFWGLSKFLGTHWLMGNILRLLFGSMTTPANWNSPLRPGEKYPLVVFSHGLGAFRTLYSAIGIDLASHGFIVAAVEHRDRSASATYYFKDQSAAEIGDKSWLYLRTLKQEEETHIRNEQVRQRAKECSQALSLILDIDHGKPVKNALDLKFDMEQLKDSIDREKIAVIGHSFGGATVIQTLSEDQRFRSGIALDAWMFPLGDEVYSRIPQPLFFINSEYFQYPANIIKMKKCYSPDKERKMITIRGSVHQNFADFTFATGKIIGHMLKLKGDIDSNVAIDLSNKASLAFLQKHLGLHKDFDQWDCLIEGDDENLIPGTNINTTNQHIMLQNSSGIEKYN
Take B9: the PAF-AH activity result is on record as “+ (“+” represents 1-10 U/ml/OD600 activity)”.
